In publication PMC8338886 (Clinical Cancer Research, 2021):
Substitutions are numbered along the chain they refer to.

T1: Human PD-L2 (human, UniProt Q9BQ51)
T1 sequence: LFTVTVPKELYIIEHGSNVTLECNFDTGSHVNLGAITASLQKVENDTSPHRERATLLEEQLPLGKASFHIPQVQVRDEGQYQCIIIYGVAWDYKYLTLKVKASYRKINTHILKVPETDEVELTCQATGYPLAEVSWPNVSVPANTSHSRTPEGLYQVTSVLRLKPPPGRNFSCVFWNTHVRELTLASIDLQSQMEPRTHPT

B1: sPD-1V1 Fc (Fc fusion)
chain: LDSPDRPWNPPTFSPALLVVTEGDNATFTCSFSNTSESFVLNWYRMSPSNQTDKLAAFPEDRGQLGQDCRFRVTQLPNGRDFHMSVVRARRSDSGTYLCSAIVLAPKIQIKESLRVELRVTERRAEVPTAHPSPSPRPAGQFQTLV
B2: sPD-1V2 Fc (Fc fusion)
chain: B1 chain with S92N

Molecular target: T1, Human PD-L2
Assay: SPR

Row | Binder | Kd [nM]
1 | B1 | 2.95
2 | B2 | 3.4
